Primed or numbered codes have the meaning given here. Where no end group is shown, it is not given here. [ ]: non-standard residue; d: D form. The star is where a group is joined. Hpra′ = its azide, alkyne or alkene has reacted where a group follows in round brackets; maleimide‑biotin = maleimide-biotin reagent joined to deprotected Cys; Man9″ = Man9 glycan attached to Hpg by CuAAC click with Man9-azide; Man9(3) = Man9-azide click-glycosylated onto Hpg; For = O=C*
Assays:
[1] = target: HIV broadly neutralizing antibody 2G12; test: radiolabelled glycopeptide with 2G12 in solution, protein G bead capture, scintillation counting
[2] = target: HIV broadly neutralizing antibody 2G12; test: radiolabelled glycopeptide with 2G12, protein G bead capture (end tied by Table 4)
[3] = target: HIV broadly neutralizing antibody 2G12; test: radiolabelled glycopeptide with 2G12, protein G bead capture; high end tied to 10V8 by Table 4
[4] = target: HIV broadly neutralizing antibody 2G12; test: radiolabelled glycopeptide with 2G12, protein G bead capture; low end tied to 10F6 by Table 4
[5] = target: HIV broadly neutralizing antibody 2G12; test: BLI curve fit, 32 nM 2G12
[6] = target: HIV broadly neutralizing antibody 2G12; test: BLI curve fit, 16 nM 2G12
[7] = target: HIV broadly neutralizing antibody 2G12; test: BLI curve fit, 4 nM 2G12
[8] = target: HIV broadly neutralizing antibody 2G12; test: BLI curve fit, 1 nM 2G12
[9] = target: HIV broadly neutralizing antibody 2G12; test: BLI curve fit, 8 nM 2G12
[10] = target: HIV broadly neutralizing antibody 2G12; test: BLI (BLItz), glycopeptide on streptavidin sensor, 2G12 in solution, global 1:1 fit
[11] = target: HIV broadly neutralizing antibody 2G12; test: BLI curve fit, 0.5 nM 2G12
[12] = target: HIV broadly neutralizing antibody 2G12; test: BLI curve fit, 2 nM 2G12

Binder	Fmax [1] [%]	Kd [1] [nM]	other results
glycopeptide 10F12-C2,21S (peptide) peptide: For-[Hpra′](Man9″)SYVTVIPA[Hpra′](Man9″)N[Hpra′](Man9″)PEARLGIVSH[Hpra′](Man9″)PGIRRGKALYGSGSLGHHHHHHRDYKDDDDK	90	186	–
glycopeptide 10F9 (Fixed library, round 10) (peptide) peptide: For-[Hpra′](Man9(3))RSTLNSLEYR[Hpra′](Man9(3))QYATEDPRIR[Hpra′](Man9(3))ASIPYTYWWPGSGSLGHHHHHHRDYKDDDDK	86	3.1	–
glycopeptide 10F3 (Fixed library, round 10) (peptide) peptide: For-[Hpra′](Man9(3))DTLHLKQIGG[Hpra′](Man9(3))PNCITQQDVR[Hpra′](Man9(3))TSIPYTYTWPGSGSLGHHHHHHRDYKDDDDK	100	3	–
glycopeptide 10F12 (Fixed library, round 10) (not fully specified (bridges); cysteine pairing not given here) peptide: For-[Hpra′](Man9″)CYVTVIPA[Hpra′](Man9″)N[Hpra′](Man9″)PEARLGIVCH[Hpra′](Man9″)PGIRRGKALYGSGSLGHHHHHHRDYKDDDDK	90	0.77	–
glycopeptide 10F2 (Fixed library, round 10), ribosomally translated (peptide) peptide: For-[Hpra′](Man9″)HPYNTSRTSA[Hpra′](Man9″)[Hpra′](Man9″)AALK[Hpra′](Man9″)QVTD[Hpra′](Man9″)YALALFHRILGSGSLGHHHHHHRDYKDDDDK	86	0.6	Kd [2]: 0.5 to 0.6 nM
glycopeptide 10F5 (Fixed library, round 10) (cysteine pairing not given here) peptide: For-[Hpra′](Man9(3))SPHLPVLLCK[Hpra′](Man9(3))VLNDGRRIVQ[Hpra′](Man9(3))SCELP[Hpra′](Man9(3))VRRSGSGSLGHHHHHHRDYKDDDDK	93	0.97	–
glycopeptide 10V8 (Variable library, round 10) (peptide) peptide: For-[Hpra′](Man9(3))VLPTIISTNVNPFR[Hpra′](Man9(3))LSIPTYTYL[Hpra′](Man9(3))PITWGEIGSGSLGHHHHHHRDYKDDDDK	94	4.6	Kd [3]: 0.5 to 5 nM
glycopeptide 10F5-C10,25S (peptide) peptide: For-[Hpra′](Man9(3))SPHLPVLLSK[Hpra′](Man9(3))VLNDGRRIVQ[Hpra′](Man9(3))SSELP[Hpra′](Man9(3))VRRSGSGSLGHHHHHHRDYKDDDDK	94	2.5	–
For-[Hpra′](Man9(3))VLNDGRRIVQ[Hpra′](Man9(3))SCELP[Hpra′](Man9(3))VRRSGSGSLGHHHHHHRDYKDDDDK [glycopeptide 10F5-Δ11]	17	> 200	–
glycopeptide 10F8 (Fixed library, round 10) (peptide) peptide: For-[Hpra′](Man9(3))LLK[Hpra′](Man9(3))VDQSRL[Hpra′](Man9(3))PVPGIGVTLH[Hpra′](Man9(3))RSIPYSYLPIGSGSLGHHHHHHRDYKDDDDK	97	2.6	–
glycopeptide 10F6 (Fixed library, round 10) (peptide) peptide: For-[Hpra′](Man9(3))L[Hpra′](Man9(3))FIRIYPTR[Hpra′](Man9(3))QYVYHAPLLT[Hpra′](Man9(3))VR[Hpra′](Man9(3))SPTGPLIGSGSLGHHHHHHRDYKDDDDK	87	0.54	Kd [2]: 0.5 to 0.6 nM; Kd [4]: 0.5 to 5 nM
For-[Hpra′](Man9(3))PNCITQQDVR[Hpra′](Man9(3))TSIPYTYTWPGSGSLGHHHHHHRDYKDDDDK [glycopeptide 10F3-Δ11]	32	25	–
For-[Hpra′](Man9(3))[Hpra′](Man9(3))AALK[Hpra′](Man9(3))QVTD[Hpra′](Man9(3))YALALFHRILGSGSLGHHHHHHRDYKDDDDK [glycopeptide 10F2-Δ11]	70	0.89	–
glycopeptide 10V9 (Variable library, round 10) (peptide) peptide: For-[Hpra′](Man9(3))TSIPYTYLNRSLWTNYRVNSWS[Hpra′](Man9(3))SKNVNV[Hpra′](Man9(3))PLGSGSLGHHHHHHRDYKDDDDK	85	3.9	–
For-[Hpra′](Man9(3))RSIPWYTYRWLPNGSGSLGHHHHHHRDYKDDDDK [glycopeptide 10V1-Δ9]	20	7.5	–
glycopeptide 10V1 (Variable library, round 10) (peptide) peptide: For-[Hpra′](Man9(3))ATKTNCKREKT[Hpra′](Man9(3))DNHVTI[Hpra′](Man9(3))RSIPWYTYRWLPNGSGSLGHHHHHHRDYKDDDDK	97	1.9	–
glycopeptide 10F3 -C15S (peptide) peptide: For-[Hpra′](Man9)DTLHLKQIGG[Hpra′](Man9)PNSITQQDVR[Hpra′](Man9)TSIPYTYTWPGSGSLGHHHHHHRDYKDDDDK	63	2.91	–
For-[Hpra′](Man9″)HPYNTSRTSA[Hpra′](Man9″)[Hpra′](Man9″)AALK[Hpra′](Man9″)QVTD[Hpra′](Man9″)YALALFHRILGSGSGC(maleimide‑biotin)A [biotinylated synthetic 10F2 glycopeptide 3]	–	–	Req [5]: 1.39; Req [6]: 1.41; Req [7]: 1.26; Req [8]: 0.682; Req [9]: 1.37; Kd [10]: 1.37 nM; koff [10]: 0.000151 s⁻¹; kon [10]: 111000 M⁻¹ s⁻¹; Req [11]: 0.481; Req [12]: 0.987

— US20160304858A1
